Assay results taken from IntAct's records for PubMed 29039417.

B1: BBSome complex member BBS2 (Homo sapiens), Q9BXC9 (parent)
chain: MLLPVFTLKLRHKISPRMVAIGRYDGTHPCLAAATQTGKVFIHNPHTRNQHVSASRVFQSPLESDVSLLSINQAVSCLTAGVLNPELGYDALLVGTQTNLLAYDVYNNSDLFYREVADGANAIVLGTLGDISSPLAIIGGNCALQGFNHEGSDLFWTVTGDNVNSLALCDFDGDGKKELLVGSEDFDIRVFKEDEIVAEMTETEIVTSLCPMYGSRFGYALSNGTVGVYDKTSRYWRIKSKNHAMSIHAFDLNSDGVNELITGWSNGKVDARSDRTGEVIFKDNFSSAIAGVVEGDYRMDGHIQLICCSVDGEIRGYLPGTAEMRGNLMDTSAEQDLIRELSQKKQNLLLELRNYEENAKAELASPLNEADGHRGIIPANTRLHTTLSVSLGNETQTAHTELRISTSNDTIIRAVLIFAEGIFTGESHVVHPSIHNLSSSICIPIVPPKDVPVDLHLKAFVGYRSSTQFHVFESTRQLPRFSMYALTSLDPASEPISYVNFTIAERAQRVVVWLGQNFLLPEDTHIQNAPFQVCFTSLRNGGHLHIKIKLSGEITINTDDIDLAGDIIQSMASFFAIEDLQVEADFPVYFEELRKVLVKVDEYHSVHQKLSADMADHSNLIRSLLVGAEDARLMRDMKTMKSRYMELYDLNRDLLNGYKIRCNNHTELLGNLKAVNQAIQRAGRLRVGKPKNQVITACRDAIRSNNINTLFKIMRVGTASS
partner: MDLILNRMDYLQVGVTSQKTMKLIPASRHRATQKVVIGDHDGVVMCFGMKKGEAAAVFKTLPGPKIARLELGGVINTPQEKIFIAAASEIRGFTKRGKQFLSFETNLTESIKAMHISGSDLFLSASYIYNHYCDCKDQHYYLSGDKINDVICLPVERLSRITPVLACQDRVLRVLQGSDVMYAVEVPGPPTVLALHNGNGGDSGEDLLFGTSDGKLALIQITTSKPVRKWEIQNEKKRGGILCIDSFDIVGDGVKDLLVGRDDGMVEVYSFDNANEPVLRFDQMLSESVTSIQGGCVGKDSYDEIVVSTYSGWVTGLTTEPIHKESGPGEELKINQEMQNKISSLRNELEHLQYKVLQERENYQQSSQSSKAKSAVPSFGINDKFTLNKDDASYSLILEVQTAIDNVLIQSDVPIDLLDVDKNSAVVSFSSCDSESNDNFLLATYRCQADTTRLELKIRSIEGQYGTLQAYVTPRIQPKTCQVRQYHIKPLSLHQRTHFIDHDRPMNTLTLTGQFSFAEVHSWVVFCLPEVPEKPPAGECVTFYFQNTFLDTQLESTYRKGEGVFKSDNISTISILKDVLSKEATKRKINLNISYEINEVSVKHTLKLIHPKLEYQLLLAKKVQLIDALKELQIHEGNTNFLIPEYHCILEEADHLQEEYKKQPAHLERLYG

Variants of: B1
Conditions: with BBS7, Q8IWZ6-2

| effect of a mutation on the interaction | Variant |
| --- | --- |
| disrupting interaction strength | L685A |
| with no effect | G657K |
| with no effect | G657E |
| with no effect | G657A |
| with no effect | A678K |
| with no effect | A678E |
| with no effect | L668A |
| with no effect | L668E |
| with no effect | L668K |
| with no effect | K659E |
| with no effect | K659A |
| with no effect | N651K |
| with no effect | N651E |
| with no effect | A674E |
| with no effect | A674K |
| with no effect | K673A |
| with no effect | K673E |
| with no effect | A682K |
| with no effect | A682E |
| with no effect | R661K |
| with no effect | R661A |
| with no effect | R661E |
| with no effect | N676A |
| with no effect | N676K |
| with no effect | N676E |

| effect of a mutation on the interaction | Variant |
| --- | --- |
| disrupting interaction strength | N676T |
| with no effect | R652E |
| with no effect | R652A |
| with no effect | R652K |
| disrupting interaction strength | I679A |
| disrupting interaction strength | I679K |
| disrupting interaction strength | I679E |
| disrupting interaction strength | I679L |
| with no effect | R681K |
| with no effect | R681A |
| with no effect | R681E |
| with no effect | N664E |
| with no effect | N664K |
| with no effect | N664A |
| with no effect | T666A |
| with no effect | T666K |
| with no effect | T666E |
| with no effect | R684E |
| with no effect | R684K |
| with no effect | R684A |
| with no effect | N663A |
| with no effect | N663K |
| with no effect | N663E |
| with no effect | L669E |
| with no effect | L669K |

| effect of a mutation on the interaction | Variant |
| --- | --- |
| with no effect | L669A |
| with no effect | Y658A |
| with no effect | Y658K |
| with no effect | Y658E |
| with no effect | G683K |
| with no effect | G683E |
| with no effect | G683A |
| disrupting interaction strength | N671E |
| with no effect | N671A |
| with no effect | N671K |
| with no effect | L655K |
| with no effect | L655A |
| with no effect | L655E |
| with no effect | L654K |
| with no effect | L654E |
| with no effect | L654A |
| with no effect | I660E |
| with no effect | I660A |
| with no effect | I660K |
| with no effect | L672K |
| with no effect | L672E |
| with no effect | L672A |
| with no effect | D653E |
| with no effect | D653A |
| with no effect | D653K |

| effect of a mutation on the interaction | Variant |
| --- | --- |
| with no effect | H665E |
| with no effect | H665A |
| with no effect | H665K |
| disrupting interaction strength | G670C |
| with no effect | G670A |
| with no effect | G670K |
| with no effect | G670E |
| with no effect | V675E |
| with no effect | V675A |
| with no effect | V675K |
| with no effect | Q677A |
| with no effect | Q677K |
| with no effect | Q677E |
| with no effect | C662A |
| with no effect | C662K |
| with no effect | C662E |
| with no effect | E667A |
| with no effect | E667K |
| with no effect | N656E |
| with no effect | N656K |
| with no effect | N656A |
| with no effect | Q680K |
| with no effect | Q680E |
| with no effect | Q680A |

Continued, variant first:

| Variant | effect of a mutation on the interaction |
| --- | --- |
| Y648K | with no effect |
| Y648E | with no effect |
| Y648A | with no effect |
| L625K | with no effect |
| L625A | with no effect |
| L625E | with no effect |
| M637E | with no effect |
| M637K | with no effect |
| M637S | disrupting interaction strength |
| M637A | with no effect |
| G627K | with no effect |
| G627E | with no effect |
| G627A | with no effect |
| E629K | with no effect |
| E629A | with no effect |
| N651A | with no effect |
| R635A | with no effect |
| R635C | disrupting interaction strength |
| R635E | with no effect |
| R635K | with no effect |
| M634K | with no effect |
| M634A | with no effect |
| M634E | with no effect |
| M640K | with no effect |
| M640A | with no effect |
| M640E | with no effect |
| S623K | with no effect |

| Variant | effect of a mutation on the interaction |
| --- | --- |
| D649E | with no effect |
| D649A | with no effect |
| D649K | with no effect |
| D630A | with no effect |
| D630E | with no effect |
| D630K | with no effect |
| A628E | with no effect |
| A628K | disrupting interaction strength |
| K638E | with no effect |
| K638A | with no effect |
| T639K | with no effect |
| T639E | with no effect |
| T639A | with no effect |
| S642K | with no effect |
| S642E | with no effect |
| S642A | with no effect |
| L647K | with no effect |
| L647E | disrupting interaction strength |
| L647A | disrupting interaction strength |
| E646A | with no effect |
| E646K | with no effect |
| L650E | with no effect |
| L650A | with no effect |
| L650K | with no effect |
| M645A | with no effect |
| M645E | with no effect |
| M645K | with no effect |

| Variant | effect of a mutation on the interaction |
| --- | --- |
| D636G | disrupting interaction strength |
| D636A | with no effect |
| D636K | disrupting interaction strength |
| D636E | with no effect |
| V626E | with no effect |
| V626A | with no effect |
| V626K | with no effect |
| Y644K | with no effect |
| Y644E | disrupting interaction strength |
| Y644A | with no effect |
| R632K | with no effect |
| R632A | with no effect |
| R632E | with no effect |
| L633A | with no effect |
| L633K | with no effect |
| L633E | with no effect |
| L624A | with no effect |
| L624K | with no effect |
| L624E | with no effect |
| R643E | with no effect |
| R643A | with no effect |
| R643K | with no effect |
| A631E | with no effect |
| A631K | with no effect |
| K641A | with no effect |
| K641E | with no effect |
